# Laboratory results published in article PMC7477745.
# Biological target: CD2 (human (endogenous in primary CD8+ T cells)) (UniProt P06729)
# Sequence of UniProt P06729 (P06729 25-351): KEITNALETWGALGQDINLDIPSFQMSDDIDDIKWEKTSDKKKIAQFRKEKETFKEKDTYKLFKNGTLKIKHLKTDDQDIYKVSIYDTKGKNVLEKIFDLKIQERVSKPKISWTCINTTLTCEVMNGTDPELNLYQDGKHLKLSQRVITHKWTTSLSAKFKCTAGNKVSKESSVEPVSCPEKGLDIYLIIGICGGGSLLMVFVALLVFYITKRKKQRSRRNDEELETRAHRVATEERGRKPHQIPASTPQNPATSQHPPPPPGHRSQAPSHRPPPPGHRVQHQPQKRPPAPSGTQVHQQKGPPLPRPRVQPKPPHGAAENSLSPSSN
substance,measurement,value
extracellular part of human CD58 (aa 29–213) (from UniProt P19256 29-213) (ligand),"efficacy (Emax) of cytokine production (TNF-α, IFN-γ, IL-2; ELISA) by c58c61-TCR CD8+ T cell blasts on plate-immobilised pMHC with a titration of coimmobilised CD58, 8 h",> 10 fold
same,"potency (EC50 of pMHC) of cytokine production (TNF-α, IFN-γ, IL-2; ELISA) by c58c61-TCR CD8+ T cell blasts on plate-immobilised pMHC with a titration of coimmobilised CD58, 8 h",50 fold
